# Data published in a protein production outcome set (Wang et al. 2014).
# Assay: label from the status in PepcDB records
# 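Note: failed if final PepcDB status was selected cloned or expressed and not failed if soluble or beyond.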
row,Sequence,protein production
1,MELREWQSKIAEKIVEALRNNFLVSLQAPTGSGKTLFALYTALKVKPKVAFVVRTHNEFFPVYRELSLHFKDKKYGFLVGKSSACVFSSSDVDAQDIYCNGCEIFNASAVTVTDSPKVSLNKLKEEGKKLGFCPYYSLLETIKTADVILLTYPYLFIPWLRESLDINWEDYVVIVDEAHNIENVSNIEEKKLNKRIIEMAISQSHSQNVKVILERLKENVEKAVYSEDKYILIEKDKLDNILPSNEEIEILSEEYDEIRKIMIKNKTVSRNYLGSILRFFDLVNDEGIRVFSYSGSLIAKYIIPSYFTDILNDEKITYMLMSGTMQPLDYLRNIIGIKRKILYIDAEKVMKKRLTGTYECLISIDVTTTYSLRSEQMARKYASYLLKIFYNSRRHVLAIFPSYEFMRIVSKFLNIRYLAEDTETSIEEIMSNLKKEKTIIMGIARGKLAEGIEIVENGSSLISDVAMVGIPYPPIDDYLKIRVEEISKILKKDISNELISIQALIAVKQSIGRAIRGPTDNATIWLLDKRYDSLWWKKELNCLNARKIKL,failed
2,MELSAVGERVFAAEALLKRRIRKGRMEYLVKWKGWSQKYSTWEPEENILDARLLAAFEEREREMELYGPKKRGPKPKTFLLKAQAKAKAKTYEFRSDSARGIRIPYPGRSPQDLASTSRAREGLRNMGLSPPASSTSTSSTCRAEAPRDRDRDRDRDRERDRERERERERERERERERERGTSRVDDKPSSPGDSSKKRGPKPRKELPDPSQRPLGEPSAGLGEYLKGRKLDDTPSGAGKFPAGHSVIQLARRQDSDLVQCGVTSPSSAEATGKLAVDTFPARVIKHRAAFLEAKGQGALDPNGTRVRHGSGPPSSGGGLYRDMGAQGGRPSLIARIPVARILGDPEEESWSPSLTNLEKVVVTDVTSNFLTVTIKESNTDQGFFKEKR,failed
3,MELSFRIWLGGLGMLISLLILYFKAVPELEEFHKNCTLKQNWEQPFKKVKNLTLILSISLLSIIGFFLMFINLVNINPI,failed
4,MELVIILLALSLLMFVAYRGFSVILFAPIFALFAVFLTEPSYVLPFFSNIFMEKMVGFIKLYFPVFLLGAIFGKVVEMSGIADSIAKTIIELVGEKRTILAIVLMGAILTYSGVSVYVVVFAVYPFAAKLFRQANIPKRLIPGTIVLGAVTFTMDALPGSPQIQNVIPTTFFKTDIYAAPILGIVGAIFVLTVGLLYLESRRKKAKAEGEGYFGFNDGNTEMAASLQVEQKNMPLTNNIEITRAQQLITFIPLILVGVMNKVFTIMIPKWYPSGFDFSAIGMKAFGKVELSAVVGIWSVELALIIGILTTLLLYWKRVVTGFQAGLNTSIGGALLATMNTGAEFGFGGVIAALPGFAIMRDGISATFTNPLVNGAVTTNILAGITGSASGGMGIVLSAMGDKFIAAANQFDIPLEVMHRIVSMASGGMDTLPHNGAIITILTVTGLTHKQSYKDIFAITILKTVAVFLVIAFYTLTGLY,failed
5,MELWIGITFASAFLQNLRSTLQKHLKGMMGTTGATFVRFVFGMPFALAYLAFLHLGLGRPLPVPNMSFAGWATVGAMAQIAATFLLVHLFSFRNFAVGTAYSRTEPAQAALFALIFIGESITGGTLAAIAISVAGVMLISVARTQVTPASFLTSIFSRTAGIGLASGAFFGLSSVAYRSASLALAPSLPAPDAMMQAGFTLVVVIVMQTVSMFLWIIWREREELPRIAKVWKPSLAVGFVGATASFGWFTAMTLQQAAVVKALAQVEMLFAFASTVLFFKEKINRLELSGCMLIVVGVLSLLAFG,failed
6,MELYQDNKLNNVGNIEINQCDGVIKKENDLHVSVIKPITKKIIHCDNMENKMKINAFYKPVELVEEIKNYVHKGDTHLVKLYEDFKNKKDKKVKMKNEYMTKLKNLHILNMINNKKKENECGVVNKNNIVHFNLFNENEDVTPKIETVYIPKLEKNIEVVSHLKENVNVDYTYMVPKPVVIPIEVPILKFRDHFKIIPIRKKIIPVIKYTDNIIYVDCCVEKPYIVYENVIIPVPCDIPIEQKKYIDKVPPI,failed
7,MEMEERKLKILQAIINDYINNGEPVGSRTIAKKYNLGISSATIRNEMADLEEMGYIEQLHTSSGRKPSDKGYRLYVDRLMEIPSMSVEEEMLIKAKIIDSALYEIDKLVKQAMSLVSEMTKLTCVVKSLSARKSYIKSISLINIEPNMILCVFITDSGMIKNSIIRVKSNIENSSLERIANILNSKLKGLTIEQINLEVINNIKKDLREYGHIFDCIMPNLYDILREADSTEVYKEGTMNIFNYPEFKDIEKAKEFLSVIDDRRILDTLFNASGGVTVNIGNENSIKEARDFSVVSSVYKYNGRPLGTIGIIGPTRIPYSKVIKVIMEVVDQINNNLDKMNNS,failed
8,MEMIGGDDTDTEMYGALVTAQSLRLRHLHHCRENQCTSVLVKYIQAPVHLVWSLVRRFDQPQKYKPFISRCTVNGDPEIGCLREVNVKSGLPATTSTERLEQLDDEEHILGINIIGGDHRLKNYSSILTVHPEMIDGRSGTMVMESFVVDVPQGNTKDDTCYFVESLIKCNLKSLACVSERLAAQDITNSIATFCNASNGYREKNHTETNL,failed
9,MEMIRGRGIPNGVVQVPNLSANNLLQKFFIASNHFCQRDSEHGENQQEAKKREDEAEEDEKDVELTLGLSLNGQFGTDPRSRKRRHFELGRSSSIPEGFVFDEQRSGGGNGGDMRRIVGRGGSDMFQLDRTRSLPVVTEMDIEKERKVSEKTRAFMESPVTNRGAYLTKDKNRGQAVETEKPRAFLEFKIPPTKEGKKEKDRLVVTGPVNGKGKNGNTAKKQKNNVENSGMEKARNILEDMPCVSTRDVGADGKRVEGFLYWYGGNKEEVKIVCVCHGSFLSPAEFVRHGGGTVSDDDGGDVMINPLRHIVVKLPSSSI,failed
10,MEMVNAEAKQSVPLLTPYKMGRFNLSHRVVLAPLTRQKSYGSVPQPHAILYYSQRTSPGGFLIAEATGVSDTAQGYPDTPGIWTKEHVEAWKPIVDAVHAKGGIFFCQIWHVGRVSNRGFQPRRQAPISCTGKPIMPQMRANGIDEARFTPPRRLSIEEIPGIVNDFRLAARNAMEAGFDGVEIHGAHGYLIDQFMKDKVNDRTDEYGGSLQNRCKFALEVVDAVAKEIGPDRVGIRLSPFADYMESGDTNPEALGLYMVESLNKYGILYCHMIEPRMKTVGEIAACSHTLMPMREAFKGTFISAGGFTREDGNEAVAKGRTDLVAYGRWFLANPDLPKRFQLDAPLNKYNRSTFYTSDPVVGYTDYPSLESTA,failed
11,MEMYFKRMKDEWTGLVEQADPPIRAKAAEIAVAHAHYLSIEFYRIVRIDPHAEEFLSNEQVERQLKSAMERWIINVLSAQVDDVERLIQIQHTVAEVHARIGIPVEIVEMGFRVLKKILYPVIFSSDYSAAEKLQVYHFSINSIDIAMEVMTRAFTFSDSSASKEDENYRIFSLLENAEEEKERQIASILSWEIDIIYKILLDSDLGSSLPLSQADFGLWFNHKGRHYFSGIAEVGHISRLIQDFDGIFNQTMRNTRNLNNRSLRVKFLLQIRNTVSQIITLLRELFEEVSRHEVGMDVLTKLLNRRFLPTIFKREIAHANRTGTPLSVLIIDVDKFKEINDTWGHNTGDEILRKVSQAFYDNVRSSDYVFRYGGDEFIIVLTEASENETLRTAERIRSRVEKTKLKAANGEDIALSLSIGAAMFNGHPDYERLIQIADEALYIAKRRGRNRVELWKASL,failed
12,MENEKIWIKELKEKRLAYGVSQNKLAVASHITRPYLSDIETGKAVPTQQVKEDLLNALERFNPDNPLEMLFDYVRIRFPTNDVAQIIGEVLRLNMDYMLHEDFGYYSYPEHYRFGDIVVLVSHDVSKGVLLELKGKGCRQFENFLLAQHRSWYDFFQDCMEHKGIFKRLDLAINDKTGILNIPDLAKKCKQEECISVFRSFKNYRSGELVHRDEKPYMGNTLYIGSLKSEVYFCIYEKDYEQYVKNDVPLEDAEVKNRFEIRLKNDRATQAMKDLLAHQQAEKTAFEIINRYIRFADKDDTKRRSDWKTNERWEWFIGKNRGALRLTTQPEPYSFERTLNWLHHQVAPTLKIASILDVLNGTTIISTMIQEAKLTEKHEKLIEQQHLAMEDLIT,not failed
13,MENEVTLLDLLWALRRAFLRLLLLALGVGLGVYALSLLLPKRYESAALLWLDLRPFPSQEALRPFPSQEALRPFPSQEALSPDQPLTSPPLASLVQALDLSLPTLRLSPAGEPASRFAQVEWDAKAQVLSLRAFGATPEEAQRRATKLLEEARSFLQARVREAYGGLAAAELARAEKALGLLEKALQEEVPQVSSRGSADLAPFLEAQGTPPPVARAQDPAATYLALKRAELLAEASRLQAQVAWLRDLLAQDGTWDRFLAESVLLSPTLPERPLAPRPLAYGVLAALGALLLGVLWVFLATVLRPGGAGVPQSDA,failed
14,MENFLSLFDFFKSKIRYIFLIYTIFTIYMNSKNCFINYVLLIFLDVILIIYSFIFLNKKQKYPFLFIIISTIVYAFIWLFGHCDNIYYFIILDDIFEIKADFKKKLLVAIHSSAFMMVTLKNLIFKNYDLHEILSSIAYSIIIYMAILFVFIFIHKFKDERDKLKILNSNLIEYSFNEREFLLSEERNRISQELHDSIGHSLMALSMNIKYLKGIKNRSNINEELDNMDKVIKESVQTLRSTVYNLKKLDECCDLKKEVYDIIKKFNRLDIVKINFDCASDIEKSTTTIKNTLIKTIKEGITNSLKHGNPTEINVTLTLVNSYIKLIIQDNGVGCQNIKPSAGLNGIKKRIEALNGKVAFESKARKGFTIETEIPGGF,failed
15,MENGEAKQSVPLLTPYKMGRFNLSHRVVLAPLTRQRSYGNVPQPHAAIYYSQRTTPGGFLITEATGVSDTAQGYQDTPGIWTKEHVEAWKPIVDAVHAKGGIFFCQIWHVGRVSNSGFQPNGKAPISCSDKPLMPQIRSNGIDEALFTPPRRLGIEEIPGIVNDFRLAARNAMEAGFDGVEIHGANGYLIDQFMKDTVNDRTDEYGGSLQNRCKFPLEIVDAVAKEIGPDRVGIRLSPFADYMESGDTNPGALGLYMAESLNKYGILYCHVIEARMKTMGEVHACPHTLMPMRKAFKGTFISAGGFTREDGNEAVSKGRTDLVAYGRWFLANPDLPKRFQVDAPLNKYDRPTFYTSDPVVGYTDYPFLESTA,not failed
16,MENGLWEVLGSKGLLKKHEFIRILVQCLYSLGFKNSASCLEFESKILYKTADSEFLEKQVLSGNWDSCVQVLDRIFDNSMDDTRNTALYLVFKQCLLEYLKRGDVSLALNVLRKQAPLLRMGKEKIHRLACDIVYSKEMESGEVDNCLVLDLRRKLLVELEKLIPLPIVIPERRLEHLVETAVMDQIDTCMYHNSCDAVSLYKDHCCGRDQIPSETVQILVAHKNEVWFVQFSNSGKYLATASSDCTAIIWKVLDDNKVELKHTLESHQNPVSFVSWSPDDTKLLTCGNAEVLKLWDVDTGVLRHTFGNNNTGFTVSSCAWFPDSTRLVCGSSDPERGIVMWDTDGNEIKAWRGTRIPKVVDLAVTPDGESMITVFSDKEIRILNLETKVERVISEEQPITSLSISGDGKFFIVNLSCQEIHLWDLAGEWKQPLKFSGHRQSKYVIRSCFGGLDSSFIASGSEDSQVYIWNLKNTKPLEVLSGHSMTVNCVSWNPKNPRMLASASDDQTIRIWGPGKPNKPLN,failed
17,MENKQVSTTQAAAKEPLIGYVHSIETFGSVDGPGIRYVAFLQGCHMRCQYCHNPDTWKLNVGDQMTADEILEDAAKYRAFWGKTGGITVSGGESLVQIDFILDLFEKAKAMNISTCLDTSGQPFTREQPFFDKFERLMKVTDISLVDIKHIDSAKHKQLTQYGNENILDMIQYMAQHHDDMWIRHVLVPQRTDYDEDLKKLGDYIAKIPNDVVQKVEVLPYHTLGVKKYHEMKIKYRLEGIESPTQDRVANAEKLLHTADYNGYKTWMPLPKL,failed
18,MENLKKYLEVAKIAALAGGQVLKENFGKVKKENIEEKGEKDFVSYVDKTSEERIKEVILKFFPDHEVVGEEMGAEGSGSEYRWFIDPLDGTKNYINGFPIFAVSVGLVKGEEPIVGAVYLPYFDKLYWGAKGLGAYVNGKRIKVKDNESLKHAGVVYGFPSRSRRDISIYLNIFKDVFYEVGSMRRPGAAAVDLCMVAEGIFDGMMEFEMKPWDITAGLVILKEAGGVYTLVGEPFGVSDIIAGNKALHDFMLQVAKKYMEVAV,not failed
